Test results from PMC7954794, “Protein context shapes the specificity of SH3 domain-mediated interactions in vivo” (Nature Communications, 2021).

Legend:
Format in all cases: cell-based, Saccharomyces cerevisiae
[1] = test system: Hua2; assay: Deep mutational scanning of Abp1 SH3, Abp1-Hua2 DHFR-PCA (DMS score); details: for hua2sc (DMS score): Abp1-Hua2, frequencies scaled to the synonymous mutation distribution; for HUA2_MTX2 (frequency normalized to the reference condition): Abp1 SH3 DMS, frequencies normalized to the reference condition; for HUA2_MTX2 (frequency normalized to the reference condition) / hua2sc (frequencies scaled to the synonymous mutation distribution, DMS score) / HUA2_MTX2 (frequencies normalized to the reference condition): Abp1-Hua2 DHFR-PCA, MTX2
Method in brief: (§1)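 Yeast, genomic ABP1 SH3 single-codon mutant pool (58 positions, NNN) × DHFR F[3] prey; diploid selection, then 2 cycles PCA selection medium, 72 h, 30 °C each. Readout: Illumina sequencing of SH3 locus vs. unselected diploid reference (S2). Biological duplicates.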

[2] = test system: Lsb3; assay: Deep mutational scanning of Abp1 SH3, Abp1-Lsb3 DHFR-PCA (DMS score); details: for lsb3sc (DMS score): Abp1-Lsb3, frequencies scaled to the synonymous mutation distribution; for LSB3_MTX2 (frequency normalized to the reference condition): Abp1 SH3 DMS, frequencies normalized to the reference condition; for LSB3_MTX2 (frequency normalized to the reference condition) / lsb3sc (frequencies scaled to the synonymous mutation distribution, DMS score) / LSB3_MTX2 (frequencies normalized to the reference condition): Abp1-Lsb3 DHFR-PCA, MTX2
Method in brief: as §1

[3] = test system: Hua2 and Lsb3; assay: Classification of Abp1 SH3 mutations by effect on Hua2 and Lsb3 DMS scores (quadrant); details: class of mutation by Hua2 and Lsb3 DMS scores (Dest. both, Dest. Hua2, Dest. Lsb3, Neutral)
[4] = test system: Hua2 and Lsb3; assay: Classification of Abp1 SH3 mutants by DMS scores with Hua2 and Lsb3 (quadrant); details: class by DMS scores with Hua2 and Lsb3 (Dest. both, Dest. Hua2, Dest. Lsb3, Neutral)

Molecule	hua2sc (DMS score) [1]	HUA2_MTX2 (frequency normalized to the reference condition) [1]	lsb3sc (DMS score) [2]	LSB3_MTX2 (frequency normalized to the reference condition) [2]	quadrant [3]	hua2sc (frequencies scaled to the synonymous mutation distribution, DMS score) [1]	HUA2_MTX2 (frequencies normalized to the reference condition) [1]	lsb3sc (frequencies scaled to the synonymous mutation distribution, DMS score) [2]	LSB3_MTX2 (frequencies normalized to the reference condition) [2]	quadrant [4]
ABP1 Y7Y (protein, UniProt P15891 2-592, looked up, synonymous codon change Y7Y in SH3) Actin-binding protein: ALEPIDYTTHSREIDAEYLKIVRGSDPDTTWLIISPNAKKEYEPESTGSSFHDFLQLFDETKVQYGLARVSPPGSDVEKIIIIGWCPDSAPLKTRASFAANFAAVANNLFKGYHVQVTARDEDDLDENELLMKISNAAGARYSIQTSSKQQGKASTPPVKKSFTPSKSPAPVSKKEPVKTPSPAPAAKISSRVNDNNDDDDWNEPELKERDFDQAPLKPNQSSYKPIGKIDLQKVIAEEKAKEDPRLVQKPTAAGSKIDPSSDIANLKNESKLKRDSEFNSFLGTTKPPSMTESSLKNDDDKVIKGFRNEKSPAQLWAERKAKQNSGNAETKAEAPKPEVPEDEPEGEPDVKDLKSKFEGLAASEKEEEEMENKFAPPPKKSEPTIISPKPFSKPQEPVKAEEAEQPKTDYKKIGNPLPGMHIEADNEEEPEENDDDWDDDEDEAAQPPLPSRNVASGAPVQKEEPEQEEIAPSLPSRNSIPAPKQEEAPEQAPEEEIEEEAEEAAPQLPSRSSAAPPPPPRRATPEKKPKENPWATAEYDYDAAEDNELTFVENDKIINIEFVDDDWWLGELEKDGSKGLFPSNYVSLGN	0.2398	1.853	-0.04736	1.453	Neutral					
ABP1 Y9Y (protein, UniProt P15891 2-592, looked up, synonymous codon change Y9Y) Actin-binding protein: ALEPIDYTTHSREIDAEYLKIVRGSDPDTTWLIISPNAKKEYEPESTGSSFHDFLQLFDETKVQYGLARVSPPGSDVEKIIIIGWCPDSAPLKTRASFAANFAAVANNLFKGYHVQVTARDEDDLDENELLMKISNAAGARYSIQTSSKQQGKASTPPVKKSFTPSKSPAPVSKKEPVKTPSPAPAAKISSRVNDNNDDDDWNEPELKERDFDQAPLKPNQSSYKPIGKIDLQKVIAEEKAKEDPRLVQKPTAAGSKIDPSSDIANLKNESKLKRDSEFNSFLGTTKPPSMTESSLKNDDDKVIKGFRNEKSPAQLWAERKAKQNSGNAETKAEAPKPEVPEDEPEGEPDVKDLKSKFEGLAASEKEEEEMENKFAPPPKKSEPTIISPKPFSKPQEPVKAEEAEQPKTDYKKIGNPLPGMHIEADNEEEPEENDDDWDDDEDEAAQPPLPSRNVASGAPVQKEEPEQEEIAPSLPSRNSIPAPKQEEAPEQAPEEEIEEEAEEAAPQLPSRSSAAPPPPPRRATPEKKPKENPWATAEYDYDAAEDNELTFVENDKIINIEFVDDDWWLGELEKDGSKGLFPSNYVSLGN	-0.7456	0.8672	-0.3936	1.1067	Neutral					
ABP1 A11A (protein, UniProt P15891 2-592, looked up, synonymous codon change A11A in SH3) Actin-binding protein: ALEPIDYTTHSREIDAEYLKIVRGSDPDTTWLIISPNAKKEYEPESTGSSFHDFLQLFDETKVQYGLARVSPPGSDVEKIIIIGWCPDSAPLKTRASFAANFAAVANNLFKGYHVQVTARDEDDLDENELLMKISNAAGARYSIQTSSKQQGKASTPPVKKSFTPSKSPAPVSKKEPVKTPSPAPAAKISSRVNDNNDDDDWNEPELKERDFDQAPLKPNQSSYKPIGKIDLQKVIAEEKAKEDPRLVQKPTAAGSKIDPSSDIANLKNESKLKRDSEFNSFLGTTKPPSMTESSLKNDDDKVIKGFRNEKSPAQLWAERKAKQNSGNAETKAEAPKPEVPEDEPEGEPDVKDLKSKFEGLAASEKEEEEMENKFAPPPKKSEPTIISPKPFSKPQEPVKAEEAEQPKTDYKKIGNPLPGMHIEADNEEEPEENDDDWDDDEDEAAQPPLPSRNVASGAPVQKEEPEQEEIAPSLPSRNSIPAPKQEEAPEQAPEEEIEEEAEEAAPQLPSRSSAAPPPPPRRATPEKKPKENPWATAEYDYDAAEDNELTFVENDKIINIEFVDDDWWLGELEKDGSKGLFPSNYVSLGN	0.2975	1.91	0.4621	1.962	Neutral					
ABP1 D32D (protein, UniProt P15891 2-592, looked up, synonymous D32D codon change) Actin-binding protein: ALEPIDYTTHSREIDAEYLKIVRGSDPDTTWLIISPNAKKEYEPESTGSSFHDFLQLFDETKVQYGLARVSPPGSDVEKIIIIGWCPDSAPLKTRASFAANFAAVANNLFKGYHVQVTARDEDDLDENELLMKISNAAGARYSIQTSSKQQGKASTPPVKKSFTPSKSPAPVSKKEPVKTPSPAPAAKISSRVNDNNDDDDWNEPELKERDFDQAPLKPNQSSYKPIGKIDLQKVIAEEKAKEDPRLVQKPTAAGSKIDPSSDIANLKNESKLKRDSEFNSFLGTTKPPSMTESSLKNDDDKVIKGFRNEKSPAQLWAERKAKQNSGNAETKAEAPKPEVPEDEPEGEPDVKDLKSKFEGLAASEKEEEEMENKFAPPPKKSEPTIISPKPFSKPQEPVKAEEAEQPKTDYKKIGNPLPGMHIEADNEEEPEENDDDWDDDEDEAAQPPLPSRNVASGAPVQKEEPEQEEIAPSLPSRNSIPAPKQEEAPEQAPEEEIEEEAEEAAPQLPSRSSAAPPPPPRRATPEKKPKENPWATAEYDYDAAEDNELTFVENDKIINIEFVDDDWWLGELEKDGSKGLFPSNYVSLGN						-0.3604	1.252	-0.4014	1.099	Neutral
ABP1 D33D (protein, UniProt P15891 2-592, looked up, synonymous D33D codon change) Actin-binding protein: ALEPIDYTTHSREIDAEYLKIVRGSDPDTTWLIISPNAKKEYEPESTGSSFHDFLQLFDETKVQYGLARVSPPGSDVEKIIIIGWCPDSAPLKTRASFAANFAAVANNLFKGYHVQVTARDEDDLDENELLMKISNAAGARYSIQTSSKQQGKASTPPVKKSFTPSKSPAPVSKKEPVKTPSPAPAAKISSRVNDNNDDDDWNEPELKERDFDQAPLKPNQSSYKPIGKIDLQKVIAEEKAKEDPRLVQKPTAAGSKIDPSSDIANLKNESKLKRDSEFNSFLGTTKPPSMTESSLKNDDDKVIKGFRNEKSPAQLWAERKAKQNSGNAETKAEAPKPEVPEDEPEGEPDVKDLKSKFEGLAASEKEEEEMENKFAPPPKKSEPTIISPKPFSKPQEPVKAEEAEQPKTDYKKIGNPLPGMHIEADNEEEPEENDDDWDDDEDEAAQPPLPSRNVASGAPVQKEEPEQEEIAPSLPSRNSIPAPKQEEAPEQAPEEEIEEEAEEAAPQLPSRSSAAPPPPPRRATPEKKPKENPWATAEYDYDAAEDNELTFVENDKIINIEFVDDDWWLGELEKDGSKGLFPSNYVSLGN						0.4122	2.025	0.1943	1.695	Neutral
ABP1 V31V (protein, UniProt P15891 2-592, looked up, synonymous codon change V31) Actin-binding protein: ALEPIDYTTHSREIDAEYLKIVRGSDPDTTWLIISPNAKKEYEPESTGSSFHDFLQLFDETKVQYGLARVSPPGSDVEKIIIIGWCPDSAPLKTRASFAANFAAVANNLFKGYHVQVTARDEDDLDENELLMKISNAAGARYSIQTSSKQQGKASTPPVKKSFTPSKSPAPVSKKEPVKTPSPAPAAKISSRVNDNNDDDDWNEPELKERDFDQAPLKPNQSSYKPIGKIDLQKVIAEEKAKEDPRLVQKPTAAGSKIDPSSDIANLKNESKLKRDSEFNSFLGTTKPPSMTESSLKNDDDKVIKGFRNEKSPAQLWAERKAKQNSGNAETKAEAPKPEVPEDEPEGEPDVKDLKSKFEGLAASEKEEEEMENKFAPPPKKSEPTIISPKPFSKPQEPVKAEEAEQPKTDYKKIGNPLPGMHIEADNEEEPEENDDDWDDDEDEAAQPPLPSRNVASGAPVQKEEPEQEEIAPSLPSRNSIPAPKQEEAPEQAPEEEIEEEAEEAAPQLPSRSSAAPPPPPRRATPEKKPKENPWATAEYDYDAAEDNELTFVENDKIINIEFVDDDWWLGELEKDGSKGLFPSNYVSLGN						-0.7307	0.882	-0.4906	1.01	Neutral
ABP1 D10D (protein, UniProt P15891 2-592, looked up, synonymous D10D codon change) Actin-binding protein: ALEPIDYTTHSREIDAEYLKIVRGSDPDTTWLIISPNAKKEYEPESTGSSFHDFLQLFDETKVQYGLARVSPPGSDVEKIIIIGWCPDSAPLKTRASFAANFAAVANNLFKGYHVQVTARDEDDLDENELLMKISNAAGARYSIQTSSKQQGKASTPPVKKSFTPSKSPAPVSKKEPVKTPSPAPAAKISSRVNDNNDDDDWNEPELKERDFDQAPLKPNQSSYKPIGKIDLQKVIAEEKAKEDPRLVQKPTAAGSKIDPSSDIANLKNESKLKRDSEFNSFLGTTKPPSMTESSLKNDDDKVIKGFRNEKSPAQLWAERKAKQNSGNAETKAEAPKPEVPEDEPEGEPDVKDLKSKFEGLAASEKEEEEMENKFAPPPKKSEPTIISPKPFSKPQEPVKAEEAEQPKTDYKKIGNPLPGMHIEADNEEEPEENDDDWDDDEDEAAQPPLPSRNVASGAPVQKEEPEQEEIAPSLPSRNSIPAPKQEEAPEQAPEEEIEEEAEEAAPQLPSRSSAAPPPPPRRATPEKKPKENPWATAEYDYDAAEDNELTFVENDKIINIEFVDDDWWLGELEKDGSKGLFPSNYVSLGN	-0.2777	1.335	0.006531	1.507	Neutral					
